Test results as given in patent publication US20100129806A1.

Experiments:
[1] = biological target: myc-IP6K2 R133A mutant (human) (UniProt Q9UHH9); experiment: cell-based or functional assay
[2] = biological target: myc-IP6K2 E138-9A mutant (glutamates 138 and 139 mutated) (human) (UniProt Q9UHH9); experiment: cell-based or functional assay
myc-IP6K2 E138-9A mutant (glutamates 138 and 139 mutated) (human), sequence (Q9UHH9 other isoform, or with tags, fused parts or gaps mutant): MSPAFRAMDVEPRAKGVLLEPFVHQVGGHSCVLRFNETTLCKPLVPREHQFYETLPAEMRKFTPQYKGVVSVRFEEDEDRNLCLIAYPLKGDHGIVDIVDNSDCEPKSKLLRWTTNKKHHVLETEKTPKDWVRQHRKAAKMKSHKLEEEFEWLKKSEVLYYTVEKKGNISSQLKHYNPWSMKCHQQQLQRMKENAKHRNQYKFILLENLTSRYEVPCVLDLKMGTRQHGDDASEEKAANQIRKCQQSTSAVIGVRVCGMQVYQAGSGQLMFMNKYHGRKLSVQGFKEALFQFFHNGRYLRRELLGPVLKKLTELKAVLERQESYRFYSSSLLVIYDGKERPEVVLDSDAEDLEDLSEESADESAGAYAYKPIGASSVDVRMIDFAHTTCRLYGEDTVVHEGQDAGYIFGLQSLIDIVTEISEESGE

myc-IP6K2 R133A mutant (human), sequence (Q9UHH9 whole entry R133A): as the sequence (Q9UHH9 other isoform, or with tags, fused parts or gaps mutant) above, with R133A, A138E, A139E counted along it

- IP6K2 enzyme activity in vivo (fold of IP6K2wt) [1]: 2
- IP6K2 enzyme activity in vivo (fold of IP6K2wt) [2]: 2
Substance: endogenous HSP90 of human cells (HEK 293, HeLa), also used purified from HeLa cells (from UniProt P07900 2-732)
- cell death of transfected HeLa cells (fold of wild type IP6K2) [1]: 5
- cell death of transfected HeLa cells (fold of wild type IP6K2) [2]: 5
